Laboratory results from article doi:10.1101/2021.03.05.434000 (bioRxiv, 2021).

Target: the molecule itself
Test: crystal structure

| Protein | binding result |
| --- | --- |
| GSQASS [NCAP segment 179-GSQASS-184] | binds |
| AALALL [NCAP segment 217-AALALL-222] | binds |
| GQTVTK [NCAP segment 243-GQTVTK-248] | binds |
